Source: IntAct's records for PubMed 18052611

B1: Protein matrimony (Drosophila melanogaster (Fruit fly)), Q23973 (parent)
chain: MENSRTPTNKTKITLNRTPTLKERRWNTLKVNTSNVRCSTPIFGNFRSPNLSPIENMGTKGKSPVSPMRFATFKKVPTKVHPKQQQQQQHQHCHRTQLKPPPFVLPKPQEEIIEPEREIKSCSSPDTCSDDSNMETSLALESRRRSIKASNHSYVVNHAANVEQILMHMGLENYVTNFEEAHIDLVELASLERADLVKIGLNTDEDCNRIMDVLHTL
partner: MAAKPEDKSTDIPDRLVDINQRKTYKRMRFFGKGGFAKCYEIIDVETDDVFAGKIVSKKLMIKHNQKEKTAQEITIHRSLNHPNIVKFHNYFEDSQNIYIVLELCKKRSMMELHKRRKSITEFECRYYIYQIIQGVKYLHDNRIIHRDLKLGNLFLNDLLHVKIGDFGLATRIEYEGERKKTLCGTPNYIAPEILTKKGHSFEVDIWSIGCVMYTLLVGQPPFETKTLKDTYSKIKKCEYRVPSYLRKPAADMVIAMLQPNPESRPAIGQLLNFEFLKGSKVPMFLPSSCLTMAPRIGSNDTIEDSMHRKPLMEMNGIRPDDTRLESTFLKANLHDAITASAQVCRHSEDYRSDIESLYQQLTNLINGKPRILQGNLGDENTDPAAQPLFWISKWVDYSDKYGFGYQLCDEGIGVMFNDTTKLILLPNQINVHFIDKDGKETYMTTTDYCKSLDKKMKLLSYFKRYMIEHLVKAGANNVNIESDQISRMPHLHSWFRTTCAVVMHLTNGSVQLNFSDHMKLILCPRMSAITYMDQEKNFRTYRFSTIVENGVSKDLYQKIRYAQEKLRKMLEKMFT

Variants of: B1
Conditions: with polo_drome polo

T40A was tested. Which “effect of a mutation on the interaction” value did it give?
The value was “disrupting interaction”.
